Source: the supplement of paper PMC12855868

B1: library; numbered along this chain (parent)
chain: MAAAGGARLLRAASAVLGGPAGRWLHHAGSRAGSSGLLRNRGPGGSAEASRSLSVSARARSSSEDKITVHFINRDGETLTTKGKVGDSLLDVVVENNLDIDGFGACEGTLACSTCHLIFEDHIYEKLDAITDEENDMLDLAYGLTDRSRLGCQICLTKSMDNMTVRVPETVADARQSIDVGKTS

Variants of: B1
Experiment: scaled log2 fold change in cell abundance, elesclomol vs control (0 = silent mean, 1 = nonsense mean) (scaled log2 ratio); higher = higher viability under elesclomol (loss of FDX1 cuproptosis function)
Details: glucose 10 mM
Protocol: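 Deep mutational scan of full-length human FDX1: a pooled saturation-mutagenesis ORF library (every residue 2-184 mutated to all 19 amino acids plus stop, and silent codons where available) was expressed by lentivirus in FDX1-knockout ABC1 (14 days) or HEK293T (11 days) cells grown with elesclomol (ES) or DMSO control. Variant abundance came from ORF sequencing. The log2 fold change (ES vs control, mean of duplicates) was centred on the silent-variant mean (0) and scaled to the nonsense-variant mean (1). Higher values mean greater viability under ES, i.e. loss of FDX1 function in cuproptosis.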

[1] = with ABC1 FDX1 KO, elesclomol 5 nM, 14 days
[2] = with HEK293T FDX1 KO, elesclomol 40 nM, 11 days
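Further: variant abundance is its share of total variant reads in each endpoint sample, from next-generation sequencing of the integrated ORF PCR-amplified out of genomic DNA.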

Variant | scaled log2 fold change [1] | scaled log2 fold change [2]
D99G | -1 | -0.777
D99H | -0.403 | -0.137
D99I | 0.14 | -0.0831
D99K | 0.114 | -0.24
D99L | -0.286 | -0.152
D99M | -0.0783 | 0.944
D99N | -0.0926 | -0.216
D99P | 0.167 | -0.37
D99Q | 0.0501 | -1.25
D99R | -0.084 | 0.945
D99S | -0.273 | -0.316
D99T | 0.182 | -0.092
D99V | 0.0908 | -1.19
D99W | -0.0217 | -0.818
D99Y | -0.0205 | 0.198
I100A | 0.162 | -0.8
I100C | -0.292 | 0.943
I100D | 0.409 | -0.663
I100E | 0.167 | 0.099
I100F | -0.0589 | -0.586
I100G | -0.02 | 0.208
I100H | 0.0888 | -0.835
I100K | 0.223 | 0.128
I100L | -0.145 | 0.198

Variant | scaled log2 fold change [1] | scaled log2 fold change [2]
I100M | -0.119 | -0.526
I100N | 0.181 | 0.295
I100P | 0.146 | -0.208
I100Q | 0.155 | 0.874
I100R | 0.287 | 0.0979
I100S | 0.183 | 1.01
I100T | 0.138 | -0.631
I100V | -0.852 | 0.0203
I100W | 0.297 | -0.693
I100Y | 0.0992 | -0.139
D101A | -0.221 | -0.578
D101C | -0.242 | 0.242
D101E | 0.0987 | -0.481
D101F | -0.332 | 0.0209
D101G | 0.085 | -0.787
D101H | -0.018 | -0.455
D101I | -0.248 | -0.191
D101K | 0.0609 | 0.803
D101L | -0.471 | -0.161
D101M | 0.241 | 0.684
D101N | -0.201 | -0.0138
D101P | -0.357 | -0.96
D101Q | 0.0405 | -0.42
D101R | 0.0225 | -0.328

Variant | scaled log2 fold change [1] | scaled log2 fold change [2]
D101S | -0.19 | -0.82
D101T | -0.218 | -0.744
D101V | 0.24 | -0.613
D101W | 0.326 | -0.257
D101Y | 0.239 | 1.05
G102A | 0.0393 | -0.812
G102C | 0.0125 | 0.0278
G102D | -0.0623 | -0.526
G102E | 0.427 | -0.163
G102F | -0.00949 | -0.289
G102H | 0.0379 | 0.869
G102I | 0.0866 | 0.0202
G102K | 0.473 | -0.277
G102L | 0.0952 | -0.752
G102M | -0.196 | -0.665
G102N | -0.336 | 0.807
G102P | 0.0181 | -0.00988
G102Q | -0.0113 | 0.76
G102R | 0.164 | -1.7
G102S | 0.293 | 0.861
G102T | -0.0667 | 2.33
G102V | 0.298 | -0.174
G102W | 0.225 | 0.879
G102Y | 0.333 | -0.0235

Variant | scaled log2 fold change [1] | scaled log2 fold change [2]
F103A | 0.92 | 0.527
F103C | 0.693 | 0.536
F103D | 1.07 | 0.779
F103E | 0.983 | 0.679
F103G | 1.04 | 2.28
F103H | 0.673 | 1.17
F103I | 0.186 | 0.171
F103K | 1.2 | 1.14
F103L | 0.27 | 0.542
F103M | 0.347 | 0.516
F103N | 1.06 | 1.03
F103P | 1.14 | 1.17
F103Q | 0.935 | 1.02
F103R | 1.09 | 1.06
F103S | 0.912 | 0.923
F103T | 1.16 | 0.355
F103V | 0.282 | -0.441
F103W | 0.392 | -1.07
F103Y | 0.192 | -0.0547
G104A | 0.243 | -1.55
G104C | 0.959 | 1.19
G104D | 1.12 | 0.43
G104E | 1.19 | 0.941
G104F | 0.647 | 0.268

Variant | scaled log2 fold change [1] | scaled log2 fold change [2]
G104H | 0.989 | 0.725
G104I | 0.933 | 1.53
G104K | 0.879 | 0.468
G104L | 1.03 | 0.779
G104M | 0.794 | 0.449
G104N | 0.899 | 1.47
G104P | 1.02 | 0.598
G104Q | 1.05 | 0.891
G104R | 0.848 | 0.682
G104S | 0.931 | 0.363
G104T | 0.997 | 1.59
G104V | 0.949 | 1.02
G104W | 0.96 | 0.69
G104Y | 0.933 | 1.09
A105C | 0.134 | -0.333
A105D | 0.0439 | 0.0751
A105E | 0.163 | -0.502
A105F | 0.0682 | 0.146
A105G | -0.0984 | -0.152
A105H | -1.17 | -0.265
A105I | -0.149 | -0.181
A105K | 0.238 | 0.106
A105L | -0.395 | 0.791
A105M | -0.336 | 0.677

Variant | scaled log2 fold change [1] | scaled log2 fold change [2]
A105N | -0.246 | 0.204
A105P | 0.895 | 0.503
A105Q | -0.126 | 0.295
A105R | 0.523 | -0.155
A105S | -0.302 | 0.253
A105T | -1.22 | 
A105V | -0.318 | 
A105W | -0.156 | 0.135
A105Y | -0.576 | 0.955
C106A | 1.03 | 1.51
C106D | 1.03 | 1.3
C106E | 1.06 | 1.3
C106F | 1.03 | 1.44
C106G | 1.07 | 1.6
C106H | 1.11 | 1
C106I | 1.16 | 1.5
C106K | 1.09 | 1.38
C106L | 1.09 | 1.32
C106M | 1.1 | 1.09
C106N | 1.18 | 0.906
C106P | 1.07 | 0.899
C106Q | 0.973 | 1.99
C106R | 1.07 | 1.14
C106S | 1.19 | 1.14

Variant | scaled log2 fold change [1] | scaled log2 fold change [2]
C106T | 1.19 | 1.27
C106V | 1.17 | 1.11
C106W | 1.05 | 1.27
C106Y | 1.17 | 1.2
E107A | 0.00703 | -0.202
E107C | 0.0589 | 0.444
E107D | -0.195 | 0.683
E107F | -0.754 | -1.14
E107G | -0.152 | 0.114
E107H | -0.0248 | 0.933
E107I | 0.227 | 0.0716
E107K | -0.532 | 0.255
E107L | -0.267 | -0.452
E107M | -0.428 | -0.835
E107N | 0.0244 | -0.796
E107P | 0.92 | 0.951
E107Q | -0.324 | -0.527
E107R | -1.12 | 1.26
E107T | -0.333 | 0.112
E107V | 0.145 | 0.849
E107W | 0.121 | -0.686
E107Y | 0.333 | -0.16
G108A | 0.21 | 1.08
G108C | 1.05 | 0.472

Variant | scaled log2 fold change [1] | scaled log2 fold change [2]
G108D | 0.898 | 0.446
G108E | 1.01 | 0.92
G108F | 1.12 | 0.938
G108H | 0.742 | 0.224
G108I | 1.05 | 1.37
G108K | 0.467 | 0.101
G108L | 1.02 | 1.11
G108M | 0.834 | 0.77
G108N | 0.805 | 0.721
G108P | 1.09 | 1.24
G108Q | 0.767 | 0.807
G108R | 0.794 | -0.104
G108S | 0.376 | 0.952
G108T | 1.01 | 0.358
G108V | 1.07 | 1.34
G108W | 0.949 | 0.989
G108Y | 1 | 1.1
T109A | -0.1 | 0.103
T109C | -0.244 | -0.121
T109D | -0.669 | 0.407
T109E | -0.14 | 
T109F | -0.985 | -0.223
T109G | 0.318 | 0.43
T109H | -0.34 | -0.84

Variant | scaled log2 fold change [1] | scaled log2 fold change [2]
T109I | -0.689 | -0.157
T109K | -0.296 | -0.481
T109L | -0.315 | 0.377
T109M | -0.267 | 1.01
T109N | -0.076 | 0.456
T109P | 0.947 | 0.81
T109Q | -0.041 | 
T109R | -0.153 | 1.07
T109S | -1.08 | -0.288
T109V | -0.651 | 
T109W | -0.657 | 0.253
T109Y | -0.087 | 
L110A | 0.303 | -0.448
L110C | 0.439 | -1.38
L110D | 0.955 | 0.687
L110E | 0.704 | 0.547
L110F | 0.167 | 0.528
L110G | -1.14 | -0.656
L110H | 0.0622 | 0.156
L110I | -0.0941 | -0.421
L110K | 0.374 | -0.159
L110M | 0.297 | 0.602
L110N | 0.111 | -0.0165
L110P | 0.33 | -0.14

Variant | scaled log2 fold change [1] | scaled log2 fold change [2]
L110Q | -0.0207 | -0.0815
L110R | -0.0668 | 1.07
L110S | -0.279 | 1.18
L110T | 0.401 | 0.383
L110V | 0.108 | -0.578
L110W | 0.568 | 0.351
L110Y | 0.609 | 0.0828
A111C | -0.264 | 2.92
A111D | -0.231 | 0.497
A111E | -0.193 | 1.05
A111F | -1.42 | 0.414
A111G | -0.0345 | 0.231
A111H | -0.198 | 
A111I | -0.421 | -0.0909
A111K | -0.155 | 0.541
A111L | 0.263 | 0.862
A111M | -0.315 | 1.22
